In article PMC3046049 (Science (New York, N.Y.), 2010):

T1: PLC-β3 truncated at residue 886 (UniProt Q01970 1-886)
T1 sequence (looked up): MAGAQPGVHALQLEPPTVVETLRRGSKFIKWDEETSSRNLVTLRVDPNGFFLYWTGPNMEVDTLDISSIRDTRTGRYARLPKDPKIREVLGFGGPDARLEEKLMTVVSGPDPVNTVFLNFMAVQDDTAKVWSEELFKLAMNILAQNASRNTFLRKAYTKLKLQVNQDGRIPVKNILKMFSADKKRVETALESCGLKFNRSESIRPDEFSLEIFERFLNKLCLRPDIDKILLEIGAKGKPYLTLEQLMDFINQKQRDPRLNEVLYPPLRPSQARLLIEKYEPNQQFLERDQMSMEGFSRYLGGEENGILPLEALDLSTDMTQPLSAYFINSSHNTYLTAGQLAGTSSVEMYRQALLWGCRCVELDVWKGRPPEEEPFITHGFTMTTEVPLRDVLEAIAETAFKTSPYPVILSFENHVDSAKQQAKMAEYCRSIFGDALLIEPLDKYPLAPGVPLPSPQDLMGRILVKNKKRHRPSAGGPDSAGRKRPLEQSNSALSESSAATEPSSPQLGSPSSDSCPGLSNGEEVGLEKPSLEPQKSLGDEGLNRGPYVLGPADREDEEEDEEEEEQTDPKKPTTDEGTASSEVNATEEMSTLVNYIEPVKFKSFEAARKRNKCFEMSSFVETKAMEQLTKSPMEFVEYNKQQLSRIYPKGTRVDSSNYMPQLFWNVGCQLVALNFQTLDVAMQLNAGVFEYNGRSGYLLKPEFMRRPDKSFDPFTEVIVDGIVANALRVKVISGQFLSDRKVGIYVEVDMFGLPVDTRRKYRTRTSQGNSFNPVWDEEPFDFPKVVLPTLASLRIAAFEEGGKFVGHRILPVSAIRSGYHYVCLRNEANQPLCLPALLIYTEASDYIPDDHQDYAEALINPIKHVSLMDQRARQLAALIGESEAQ

B1: Gαq (natural protein)
chain: RRELKLLLLGTGESGKSTFIKQMRIIHGSGYSDEDKRGFTKLVYQNIFTAMQAMIRAMDTLKIPYKYEHNKAHAQLVREVDVEKVSAFENPYVDAIKSLWNDPGIQECYDRRREYQLSDSTKYYLNDLDRVADPSYLPTQQDVLRVRVPTTGIIEYPFDLQSVIFRMVDVGGQRSERRKWIHCFENVTSIMFLVALSEYDQVLVESDNENRMEESKALFRTIITYPWFQNSSVILFLNKKDLLEEKIMYSHLVDYFPEYDGPQRDAQAAREFILKMFVDLNPDSDKIIYSHFTCATDTENIRFVFAAVKDTILQLNLKEYNLV
B2: PLC-β3(L859A) (enzyme, UniProt Q01970 1-1234, looked up)
chain: MAGAQPGVHALQLEPPTVVETLRRGSKFIKWDEETSSRNLVTLRVDPNGFFLYWTGPNMEVDTLDISSIRDTRTGRYARLPKDPKIREVLGFGGPDARLEEKLMTVVSGPDPVNTVFLNFMAVQDDTAKVWSEELFKLAMNILAQNASRNTFLRKAYTKLKLQVNQDGRIPVKNILKMFSADKKRVETALESCGLKFNRSESIRPDEFSLEIFERFLNKLCLRPDIDKILLEIGAKGKPYLTLEQLMDFINQKQRDPRLNEVLYPPLRPSQARLLIEKYEPNQQFLERDQMSMEGFSRYLGGEENGILPLEALDLSTDMTQPLSAYFINSSHNTYLTAGQLAGTSSVEMYRQALLWGCRCVELDVWKGRPPEEEPFITHGFTMTTEVPLRDVLEAIAETAFKTSPYPVILSFENHVDSAKQQAKMAEYCRSIFGDALLIEPLDKYPLAPGVPLPSPQDLMGRILVKNKKRHRPSAGGPDSAGRKRPLEQSNSALSESSAATEPSSPQLGSPSSDSCPGLSNGEEVGLEKPSLEPQKSLGDEGLNRGPYVLGPADREDEEEDEEEEEQTDPKKPTTDEGTASSEVNATEEMSTLVNYIEPVKFKSFEAARKRNKCFEMSSFVETKAMEQLTKSPMEFVEYNKQQLSRIYPKGTRVDSSNYMPQLFWNVGCQLVALNFQTLDVAMQLNAGVFEYNGRSGYLLKPEFMRRPDKSFDPFTEVIVDGIVANALRVKVISGQFLSDRKVGIYVEVDMFGLPVDTRRKYRTRTSQGNSFNPVWDEEPFDFPKVVLPTLASLRIAAFEEGGKFVGHRILPVSAIRSGYHYVCLRNEANQPLCLPALLIYTEASDYIPDDHQDYAEAAINPIKHVSLMDQRARQLAALIGESEAQAGQETCQDTQSQQLGSQPSSNPTPSPLDASPRRPPGPTTSPASTSLSSPGQRDDLIASILSEVAPTPLDELRGHKALVKLRSRQERDLRELRKKHQRKAVTLTRRLLDGLAQAQAEGRCRLRPGALGGAADVEDTKEGEDEAKRYQEFQNRQVQSLLELREAQVDAEAQRRLEHLRQALQRLREVVLDANTTQFKRLKEMNEREKKELQKILDRKRHNSISEAKMRDKHKKEAELTEINRRHITESVNSIRRLEEAQKQRHDRLVAGQQQVLQQLAEEEPKLLAQLAQECQEQRARLPQEIRRSLLGEMPEGLGDGPLVACASNGHAPGSSGHLSGADSESQEENTQL

Columns and labels:
[1] = target: T1, PLC-β3 truncated at residue 886
Gαq = target: B1

Kd [1] | fold lower binding affinity than PLC-β3 (Gαq) | Binder
~200 nM |  | B1
 | 7 fold | B2
